Measured values from patent US20230107034A1 (published 2023).
Numbering of substitutions follows the chain as printed.

B1: B75 (hybridoma-purified mAb) (antibody, V domains shown)
VH: QVQLVESGGGVVQPGRSLRLSCAASGFTFSSYGMHWVRQAPGKGLEWVAVIWYDGSYKYYADSVKGRFTISRDNSKNTLYLQMNSLRVEDTAVYYCAREGRTYYDFLTGYFDFWGQGTLVTVSS
VL: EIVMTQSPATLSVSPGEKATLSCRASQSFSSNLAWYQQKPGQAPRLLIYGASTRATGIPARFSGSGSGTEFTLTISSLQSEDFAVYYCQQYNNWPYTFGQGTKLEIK
B2: B90 (hybridoma-purified mAb) (antibody, V domains shown)
VH: QVQLVESGGGVVQPGRSLRLSCAASGFTFSSYGMHWVRQAPGKGLEWVAIIWYDGSKKYYADSVKGRFTISRDNSKNTLYLQMNSLRVEDTAVYYCARRGRVGATRDYYYYSMDVWGQGTTVTVSS
VL: AIQMTQSPSSLSASVGDRVTITCRASQGIRNDLGWFHQKPGKAPKLLIYAASSLQSGVPSRFSGSGSGTDFTLTISSLQPEDFATYYCLQDYVYPWTFGQGTKVEIK
B3: B51 (hybridoma-purified mAb) (antibody, V domains shown)
VH: B2 VH with Y32H, I50V, K57N, Y59N, V88A, A104V, D107N, S112G
VL: B2 VL with H37Q, G41V, A50P, V93N
B4: B28 (hybridoma-purified mAb) (antibody, V domains shown)
VH: QVQLVESGGGVVQPGRSVRLSCAATGFTFSSYGMHWVRQAPGKGLEWVAVIWFDGSNEYYADSVRGRFTISRDNSKNTLYLQMNSLRAEDTAVYYCARRGRVGVTRNYYYYNMDVWGQGTTVTVSS
VL: B2 VL with H37Q, A50P, G68D, V93N, Y94F, W96F, Q100P, E105D
B5: B60 (antibody, V domains shown)
VH: B2 VH with Y32H, I50V, K57N, Y59N, V88A, A104V, D107N, S112G
VL: B2 VL with H37Q, G41V, A50P, V93N
B6: B54 (hybridoma-purified mAb) (antibody, V domains shown)
VH: B2 VH with S31T, I50L, K65Q, N74S, A104V, D107N, S112G
VL: B2 VL with A25T, G28D, H37Q, L46F, A50P, S56G, T72I, V93N, Y94F, Q100E
B7: B24 (hybridoma-purified mAb) (antibody, V domains shown)
VH: EVQLLESGGGLVQPGGSLRLSCAASGFTFSSYAMTWVRQAPGEGLEWVSTISGSGIRTYYADSVKGRFTISRDNSKNTMYLQMNSLRAEDTAVYYCAKDGLTGDRRWYFDLWGRGTLVTVSS
VL: EIVMTQSPATLSLSPGERATLSCRASQSVSSSYFSWYQQKPGQAPRLLIYGASTRATGIPARFSGSGSGTDFTLTISSLQPEDFAVYYCQQDSNLPLTFGGGTKVEIK
B8: B19 reprep (=B24) (antibody, V domains shown)
VH: B7 VH
VL: B7 VL
B9: B73 (hybridoma-purified mAb) (antibody, V domains shown)
VH: QLQLQMSGPGLVKPSETLSLTCTVSGGSISSSSYYWGWIRQSPGKGLEWIGSIYYSGRTYYNPSLKSRVTISVDTSKNQFSLKLSSVTAADTAMYYCARRSSGRPYYWGQGTLVTVSS
VL: QAVVTQESALTTSPGGTVILTCRSSTGAVTTSNYANWVQEKPDHLFTGLIGETNNRAPGVPVRFSGSLIGDKAALTITGAQTEDDAMYFCALWYSTHWVFGGGTKLTVL

Legend:
monomeric Aβ [1] = target: T1, monomeric Aβ (UniProt P05067 672-713); test: BIAcore SPR
T1 sequence (P05067 672-713): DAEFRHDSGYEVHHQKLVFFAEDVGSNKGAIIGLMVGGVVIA

[2] = target: T2, synthetic Aβ protofibrils (Aβ1-42-derived protofibrils) (UniProt P05067 672-713); test: Octet BLI (Protein G sensor); PF 0.9167 nM
T2 sequence (P05067 672-713): as above

monomeric Aβ [3] = target: T1, monomeric Aβ; test: SPR
[4] = target: T2, synthetic Aβ protofibrils …; test: Octet BLI (Protein G sensor); PF 3.67 nM
[5] = target: T2, synthetic Aβ protofibrils …; test: Octet BLI (Protein G sensor); PF 14.7 nM
monomeric Aβ [6] = target: T1, monomeric Aβ; test: SPR; remark: listed apart in the source
monomeric Aβ [7] = target: T1, monomeric Aβ; test: BIAcore SPR; remark: listed apart in the source
[8] = target: T2, synthetic Aβ protofibrils …; test: Octet BLI (Protein G sensor); PF 14.7 nM; LB
monomeric Aβ [9] = target: T1, monomeric Aβ; test: SPR; remark: listed apart in the source
[10] = target: T2, synthetic Aβ protofibrils …; test: Octet BLI (Protein G sensor); PF 3.67 nM; LB
[11] = target: T2, synthetic Aβ protofibrils …; test: Octet BLI (Protein G sensor); PF 0.9167 nM; LB
monomeric Aβ [12] = target: T1, monomeric Aβ; test: BIAcore SPR; remark: listed apart in the source
monomeric Aβ [13] = target: T1, monomeric Aβ; test: SPR; remark: listed apart in the source

Binder | Kd [2] | Kd [4] | Kd [5] | other results
B1 | – | – | – | koff (monomeric Aβ [1]): 0.00238 s⁻¹
B2 | < 1 pM | < 1 pM | < 1 pM | koff (monomeric Aβ [3]): 0.00722 s⁻¹
B3 | < 1 pM | < 1 pM | < 1 pM | koff (monomeric Aβ [6]): 0.0144 s⁻¹
B4 | – | < 1 pM | 21800 pM | koff (monomeric Aβ [7]): 9.41e-05 s⁻¹
B5 | – | – | – | koff (monomeric Aβ [1]): 0.00356 s⁻¹
B6 | < 1 pM | < 1 pM | < 1 pM | koff (monomeric Aβ [6]): 0.00526 s⁻¹
B7 | – | – | – | Kd [8]: < 1 pM; koff (monomeric Aβ [9]): 0.0956 s⁻¹; Kd [10]: < 1 pM; Kd [11]: < 1 pM
B8 | – | – | – | koff (monomeric Aβ [12]): 6.58e-07 s⁻¹
B9 | < 1 pM | < 1 pM | < 1 pM | koff (monomeric Aβ [13]): 0.0012 s⁻¹
